Reference: publication PMC9344812, “Induction of beige‐like adipocyte markers and functions in 3T3‐L1 cells by Clk1 and PKCβII inhibitory molecules” (Journal of Cellular and Molecular Medicine, 2022)

How the values were obtained:
Details in all cases: both partners purified
[1] = target: T1, PGC1α 6X his-tagged construct (UniProt Q9UBK2 1-798); experiment: SPR; Biacore T200; ~1000 RU PGC1α 6X his held non-covalently on a Ni-NTA chip; Clk1 flowed, 30 µl/min; one-site specific binding model with Hill slope
T1 construct: PGC1α, 6X his-tagged construct held on a Ni-NTA chip
T1 sequence (looked up): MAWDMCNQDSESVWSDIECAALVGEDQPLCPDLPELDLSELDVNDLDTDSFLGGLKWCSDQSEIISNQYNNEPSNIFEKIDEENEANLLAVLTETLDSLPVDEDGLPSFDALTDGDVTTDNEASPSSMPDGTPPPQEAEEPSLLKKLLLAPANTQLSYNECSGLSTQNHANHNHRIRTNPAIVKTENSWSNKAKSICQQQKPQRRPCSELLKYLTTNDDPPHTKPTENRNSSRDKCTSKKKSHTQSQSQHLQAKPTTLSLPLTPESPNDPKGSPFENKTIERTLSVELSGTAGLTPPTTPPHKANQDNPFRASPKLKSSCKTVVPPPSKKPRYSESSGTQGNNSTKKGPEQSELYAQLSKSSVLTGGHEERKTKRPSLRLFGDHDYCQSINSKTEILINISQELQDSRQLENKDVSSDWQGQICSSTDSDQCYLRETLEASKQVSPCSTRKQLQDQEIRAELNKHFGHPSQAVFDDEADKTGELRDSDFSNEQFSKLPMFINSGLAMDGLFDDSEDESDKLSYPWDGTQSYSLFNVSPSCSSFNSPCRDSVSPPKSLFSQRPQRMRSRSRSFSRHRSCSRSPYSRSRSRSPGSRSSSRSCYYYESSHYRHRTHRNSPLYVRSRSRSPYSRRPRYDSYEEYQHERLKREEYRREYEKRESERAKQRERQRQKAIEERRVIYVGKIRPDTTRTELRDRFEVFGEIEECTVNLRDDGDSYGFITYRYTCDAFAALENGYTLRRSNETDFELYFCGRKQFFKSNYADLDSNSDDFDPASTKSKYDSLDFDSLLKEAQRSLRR

[2] = target: T2, Clk4 (recombinant, covalently immobilised on the CM5 chip) (UniProt Q9HAZ1 1-481); experiment: SPR; Biacore T200; Clk1, Clk2 (1000 RU) and Clk4 (1000 RU) covalently immobilised on a CM5 chip by NHS/EDC; PGC1α titrated in HBS-N without DMSO, 30 µl/min, 60 s association, 120 s dissociation; steady state, one-site specific binding model
T2 construct: Clk4 kinase, recombinant; source: bought: Abcam#AB204144 (recombinant)

[3] = target: T3, Clk2 (recombinant, covalently immobilised on the CM5 chip) (UniProt P49760 1-499); experiment: as above
T3 construct: Clk2 kinase, recombinant; source: bought: Abcam #AB63190 (recombinant)

[4] = target: T4, Clk1 (recombinant, covalently immobilised on the CM5 chip) (UniProt P49759 1-484); experiment: as above
T4 construct: Clk1 kinase, recombinant; The methods print the catalogue number beside PDB 1Z57, which was used for modelling; also called Clk1 GST; source: bought: AbCam #114 706 (recombinant)
T4 sequence (P49759 whole entry): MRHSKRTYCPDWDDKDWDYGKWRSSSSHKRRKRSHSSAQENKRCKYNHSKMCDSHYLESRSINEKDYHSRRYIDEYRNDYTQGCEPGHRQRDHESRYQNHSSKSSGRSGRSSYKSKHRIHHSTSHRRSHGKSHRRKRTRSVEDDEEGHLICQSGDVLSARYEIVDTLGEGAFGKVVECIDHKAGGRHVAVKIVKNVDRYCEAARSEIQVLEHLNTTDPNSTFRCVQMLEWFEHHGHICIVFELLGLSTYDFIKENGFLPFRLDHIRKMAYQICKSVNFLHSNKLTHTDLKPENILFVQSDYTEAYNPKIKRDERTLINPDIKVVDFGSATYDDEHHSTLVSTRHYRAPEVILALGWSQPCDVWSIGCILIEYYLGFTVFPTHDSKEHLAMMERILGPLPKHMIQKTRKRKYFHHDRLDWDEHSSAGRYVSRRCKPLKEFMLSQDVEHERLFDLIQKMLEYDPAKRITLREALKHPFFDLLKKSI

T3 sequence (P49760 whole entry): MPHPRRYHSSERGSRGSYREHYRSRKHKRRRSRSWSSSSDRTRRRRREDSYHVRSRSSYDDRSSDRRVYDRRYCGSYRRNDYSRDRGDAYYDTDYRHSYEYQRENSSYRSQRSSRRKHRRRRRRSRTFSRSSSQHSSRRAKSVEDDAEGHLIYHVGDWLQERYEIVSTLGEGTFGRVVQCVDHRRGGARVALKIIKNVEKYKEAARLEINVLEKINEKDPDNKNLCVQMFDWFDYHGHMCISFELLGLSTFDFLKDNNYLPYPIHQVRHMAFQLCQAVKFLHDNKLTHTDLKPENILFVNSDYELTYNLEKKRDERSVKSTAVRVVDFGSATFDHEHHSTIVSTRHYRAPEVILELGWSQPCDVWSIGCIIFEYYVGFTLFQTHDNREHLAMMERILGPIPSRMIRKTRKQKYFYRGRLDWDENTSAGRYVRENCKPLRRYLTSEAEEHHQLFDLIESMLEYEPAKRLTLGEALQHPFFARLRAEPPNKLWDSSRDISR
T2 sequence (Q9HAZ1 whole entry): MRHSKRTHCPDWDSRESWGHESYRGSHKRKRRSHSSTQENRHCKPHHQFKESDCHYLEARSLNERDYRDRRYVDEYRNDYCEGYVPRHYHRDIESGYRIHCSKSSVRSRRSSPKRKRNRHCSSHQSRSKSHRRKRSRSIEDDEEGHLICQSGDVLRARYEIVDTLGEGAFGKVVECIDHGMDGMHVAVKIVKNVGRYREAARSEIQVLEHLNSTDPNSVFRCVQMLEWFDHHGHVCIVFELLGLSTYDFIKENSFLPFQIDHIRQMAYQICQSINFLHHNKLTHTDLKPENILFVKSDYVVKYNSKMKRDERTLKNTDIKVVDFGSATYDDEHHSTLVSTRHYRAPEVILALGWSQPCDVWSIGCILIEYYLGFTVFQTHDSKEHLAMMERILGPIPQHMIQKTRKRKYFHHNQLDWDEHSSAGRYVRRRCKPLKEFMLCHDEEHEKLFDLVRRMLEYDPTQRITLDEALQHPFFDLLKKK

B1: Clk1 (flowed over immobilised PGC1α 6X his) (enzyme)
chain: not shown
notes: Clk1 kinase, recombinant; May be the same bought protein as m1 (AbCam #114 706)
Kd [1]: ~38 nM

B2: PGC1α (titrated and flowed over the Clk chips) (natural protein)
chain: TRTELRDRFEVFGEIEECTVNLRDDGDSYGFITYRYTCDAFAALENGYTLRRSNETDFELYFCGRKQFFKSNYADLDSNSDDFDPASTKSKYDSLDFDSLLKEAQRSLRR
modifications: Limits are not printed. They are recalled from the supplier's listing for catalogue H00010891-Q01 (partial human PPARGC1A, NP_037393 aa 689-798, N-terminal GST) and should be verified. GST is left …
Kd [2]: 509 nM
Kd [3]: 980 nM
Kd [4]: 240 nM
